Experimental data: patent US7657380

T1: human CD30 (commercial, conjugated to digoxigenin) (human, UniProt P28908 19-379, limits assumed, conjugated to digoxigenin (DIG))
T1 sequence (looked up): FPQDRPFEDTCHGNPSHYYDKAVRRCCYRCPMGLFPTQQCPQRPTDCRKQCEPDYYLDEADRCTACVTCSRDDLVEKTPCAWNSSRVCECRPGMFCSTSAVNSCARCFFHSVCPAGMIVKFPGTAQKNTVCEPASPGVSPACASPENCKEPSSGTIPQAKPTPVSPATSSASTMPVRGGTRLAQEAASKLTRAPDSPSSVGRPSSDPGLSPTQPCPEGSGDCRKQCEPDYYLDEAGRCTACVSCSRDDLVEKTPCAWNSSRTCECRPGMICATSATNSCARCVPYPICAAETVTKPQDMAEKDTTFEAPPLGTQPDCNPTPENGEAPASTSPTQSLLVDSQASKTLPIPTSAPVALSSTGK


Target: T1, human CD30 (commercial, conjugated to …)
Experiment: AlphaScreen competition

Binder | Fold IC50 vs H3/L3 [fold]
AC10 H3/L3.24 (antibody, IgG1, name in Kabat numbering, V domains shown) VH: QIQLVQSGPEVKKPGASVKVSCKASGYTFTDYYITWVRQAPGQGLEWMGWIYPGSGNTKYNEKFQGRFVFSVDTSASTAYLQISSLKAEDTAVYFCANYGNYWFAYWGQGTLVTVSS VL: DIVLTQSPDSLAVSLGERATINCKASQSVDFDGDSDMNWYQQKPGQPPKVLIYAASNLESGIPARFSGSGSGTDFTLTINSLEAEDAATYYCQQSNEDPWTFGGGTKVEIK | 0.46
AC10 H3/L3.25 (antibody, IgG1, name in Kabat numbering, V domains shown) VH: QIQLVQSGPEVKKPGASVKVSCKASGYTFTDYYITWVRQAPGQGLEWMGWIYPGSGNTKYNEKFQGRFVFSVDTSASTAYLQISSLKAEDTAVYFCANYGNYWFAYWGQGTLVTVSS VL: DIVLTQSPDSLAVSLGERATINCKASQSVDFDGDSYLNWYQQKPGQPPKVLIYAASNLESGIPARFSGSGSGTDFTLTINSLEAEDAATYYCQQSNEDPWTFGGGTKVEIK | 1.36
AC10 H3/L3.44 (antibody, IgG1, name in Kabat numbering, V domains shown) VH: QIQLVQSGPEVKKPGASVKVSCKASGYTFTDYYITWVRQAPGQGLEWMGWIYPGSGNTKYNEKFQGRFVFSVDTSASTAYLQISSLKAEDTAVYFCANYGNYWFAYWGQGTLVTVSS VL: DIVLTQSPDSLAVSLGERATINCKASQSVDFDGDSYMNWYQQKPGQPPKVLIYAASNLESGIPSRFSGSGSGTDFTLTINSLEAEDAATYYCQQSNEDPWTFGGGTKVEIK | 1.08
AC10 H3/L3.51 (antibody, IgG1, name in Kabat numbering, V domains shown) VH: QIQLVQSGPEVKKPGASVKVSCKASGYTFTDYYITWVRQAPGQGLEWMGWIYPGSGNTKYNEKFQGRFVFSVDTSASTAYLQISSLKAEDTAVYFCANYGNYWFAYWGQGTLVTVSS VL: DIVLTQSPDSLAVSLGERATINCKASQSVDFDGDSYMNWYQQKPGQPPKVLIYAASNLESGIPARFSGSGSGTDFTLTINSLEAEDAATYYCQQYNEDPWTFGGGTKVEIK | 0.02
AC10 H3/L3.39 (antibody, IgG1, name in Kabat numbering, V domains shown) VH: QIQLVQSGPEVKKPGASVKVSCKASGYTFTDYYITWVRQAPGQGLEWMGWIYPGSGNTKYNEKFQGRFVFSVDTSASTAYLQISSLKAEDTAVYFCANYGNYWFAYWGQGTLVTVSS VL: DIVLTQSPDSLAVSLGERATINCKASQSVDFDGDSYMNWYQQKPGQPPKVLIYAASNLASGIPARFSGSGSGTDFTLTINSLEAEDAATYYCQQSNEDPWTFGGGTKVEIK | 0.85
AC10 H3/L3.49 (antibody, IgG1, name in Kabat numbering, V domains shown) VH: QIQLVQSGPEVKKPGASVKVSCKASGYTFTDYYITWVRQAPGQGLEWMGWIYPGSGNTKYNEKFQGRFVFSVDTSASTAYLQISSLKAEDTAVYFCANYGNYWFAYWGQGTLVTVSS VL: DIVLTQSPDSLAVSLGERATINCKASQSVDFDGDSYMNWYQQKPGQPPKVLIYAASNLESGIPARFSGSGSGTDFTLTINSLEAEDAATYYCQQHNEDPWTFGGGTKVEIK | 0.01
AC10 H3/L3.30 (antibody, IgG1, name in Kabat numbering, V domains shown) VH: QIQLVQSGPEVKKPGASVKVSCKASGYTFTDYYITWVRQAPGQGLEWMGWIYPGSGNTKYNEKFQGRFVFSVDTSASTAYLQISSLKAEDTAVYFCANYGNYWFAYWGQGTLVTVSS VL: DIVLTQSPDSLAVSLGERATINCKASQSVDFDGDSYMNWYQQKPGQPPKLLIYAASNLESGIPARFSGSGSGTDFTLTINSLEAEDAATYYCQQSNEDPWTFGGGTKVEIK | 0.39
AC10 H3/L3.50 (antibody, IgG1, name in Kabat numbering, V domains shown) VH: QIQLVQSGPEVKKPGASVKVSCKASGYTFTDYYITWVRQAPGQGLEWMGWIYPGSGNTKYNEKFQGRFVFSVDTSASTAYLQISSLKAEDTAVYFCANYGNYWFAYWGQGTLVTVSS VL: DIVLTQSPDSLAVSLGERATINCKASQSVDFDGDSYMNWYQQKPGQPPKVLIYAASNLESGIPARFSGSGSGTDFTLTINSLEAEDAATYYCQQLNEDPWTFGGGTKVEIK | 0.02
AC10 H3/L3.43 (antibody, IgG1, name in Kabat numbering, V domains shown) VH: QIQLVQSGPEVKKPGASVKVSCKASGYTFTDYYITWVRQAPGQGLEWMGWIYPGSGNTKYNEKFQGRFVFSVDTSASTAYLQISSLKAEDTAVYFCANYGNYWFAYWGQGTLVTVSS VL: DIVLTQSPDSLAVSLGERATINCKASQSVDFDGDSYMNWYQQKPGQPPKVLIYAASNLESGIPDRFSGSGSGTDFTLTINSLEAEDAATYYCQQSNEDPWTFGGGTKVEIK | 1.16
AC10 H3/L3.33 (antibody, IgG1, name in Kabat numbering, V domains shown) VH: QIQLVQSGPEVKKPGASVKVSCKASGYTFTDYYITWVRQAPGQGLEWMGWIYPGSGNTKYNEKFQGRFVFSVDTSASTAYLQISSLKAEDTAVYFCANYGNYWFAYWGQGTLVTVSS VL: DIVLTQSPDSLAVSLGERATINCKASQSVDFDGDSYMNWYQQKPGQPPKVLIYDASNLESGIPARFSGSGSGTDFTLTINSLEAEDAATYYCQQSNEDPWTFGGGTKVEIK | 0.26
AC10 H3/L3.37 (antibody, IgG1, name in Kabat numbering, V domains shown) VH: QIQLVQSGPEVKKPGASVKVSCKASGYTFTDYYITWVRQAPGQGLEWMGWIYPGSGNTKYNEKFQGRFVFSVDTSASTAYLQISSLKAEDTAVYFCANYGNYWFAYWGQGTLVTVSS VL: DIVLTQSPDSLAVSLGERATINCKASQSVDFDGDSYMNWYQQKPGQPPKVLIYAASTLESGIPARFSGSGSGTDFTLTINSLEAEDAATYYCQQSNEDPWTFGGGTKVEIK | 1.26
AC10 H3/L3.32 (antibody, IgG1, name in Kabat numbering, V domains shown) VH: QIQLVQSGPEVKKPGASVKVSCKASGYTFTDYYITWVRQAPGQGLEWMGWIYPGSGNTKYNEKFQGRFVFSVDTSASTAYLQISSLKAEDTAVYFCANYGNYWFAYWGQGTLVTVSS VL: DIVLTQSPDSLAVSLGERATINCKASQSVDFDGDSYMNWYQQKPGQPPKSLIYAASNLESGIPARFSGSGSGTDFTLTINSLEAEDAATYYCQQSNEDPWTFGGGTKVEIK | 0.32
AC10 H3/L3.34 (antibody, IgG1, name in Kabat numbering, V domains shown) VH: QIQLVQSGPEVKKPGASVKVSCKASGYTFTDYYITWVRQAPGQGLEWMGWIYPGSGNTKYNEKFQGRFVFSVDTSASTAYLQISSLKAEDTAVYFCANYGNYWFAYWGQGTLVTVSS VL: DIVLTQSPDSLAVSLGERATINCKASQSVDFDGDSYMNWYQQKPGQPPKVLIYSASNLESGIPARFSGSGSGTDFTLTINSLEAEDAATYYCQQSNEDPWTFGGGTKVEIK | 0.47
AC10 H3/L3.40 (antibody, IgG1, name in Kabat numbering, V domains shown) VH: QIQLVQSGPEVKKPGASVKVSCKASGYTFTDYYITWVRQAPGQGLEWMGWIYPGSGNTKYNEKFQGRFVFSVDTSASTAYLQISSLKAEDTAVYFCANYGNYWFAYWGQGTLVTVSS VL: DIVLTQSPDSLAVSLGERATINCKASQSVDFDGDSYMNWYQQKPGQPPKVLIYAASNLQSGIPARFSGSGSGTDFTLTINSLEAEDAATYYCQQSNEDPWTFGGGTKVEIK | 0.87
AC10 H3/L3.28 (antibody, IgG1, name in Kabat numbering, V domains shown) VH: QIQLVQSGPEVKKPGASVKVSCKASGYTFTDYYITWVRQAPGQGLEWMGWIYPGSGNTKYNEKFQGRFVFSVDTSASTAYLQISSLKAEDTAVYFCANYGNYWFAYWGQGTLVTVSS VL: DIVLTQSPDSLAVSLGERATINCKASQSVDFDGDSYMDWYQQKPGQPPKVLIYAASNLESGIPARFSGSGSGTDFTLTINSLEAEDAATYYCQQSNEDPWTFGGGTKVEIK | 0.41
AC10 H3/L3.27 (antibody, IgG1, name in Kabat numbering, V domains shown) VH: QIQLVQSGPEVKKPGASVKVSCKASGYTFTDYYITWVRQAPGQGLEWMGWIYPGSGNTKYNEKFQGRFVFSVDTSASTAYLQISSLKAEDTAVYFCANYGNYWFAYWGQGTLVTVSS VL: DIVLTQSPDSLAVSLGERATINCKASQSVDFDGDSYMAWYQQKPGQPPKVLIYAASNLESGIPARFSGSGSGTDFTLTINSLEAEDAATYYCQQSNEDPWTFGGGTKVEIK | 0.38
AC10 H3/L3.42 (antibody, IgG1, name in Kabat numbering, V domains shown) VH: QIQLVQSGPEVKKPGASVKVSCKASGYTFTDYYITWVRQAPGQGLEWMGWIYPGSGNTKYNEKFQGRFVFSVDTSASTAYLQISSLKAEDTAVYFCANYGNYWFAYWGQGTLVTVSS VL: DIVLTQSPDSLAVSLGERATINCKASQSVDFDGDSYMNWYQQKPGQPPKVLIYAASNLESGVPARFSGSGSGTDFTLTINSLEAEDAATYYCQQSNEDPWTFGGGTKVEIK | 1.55
AC10 H3/L3.48 (antibody, IgG1, name in Kabat numbering, V domains shown) VH: QIQLVQSGPEVKKPGASVKVSCKASGYTFTDYYITWVRQAPGQGLEWMGWIYPGSGNTKYNEKFQGRFVFSVDTSASTAYLQISSLKAEDTAVYFCANYGNYWFAYWGQGTLVTVSS VL: DIVLTQSPDSLAVSLGERATINCKASQSVDFDGDSYMNWYQQKPGQPPKVLIYAASNLESGIPARFSGSGSGTDFTLTINSLEAEDAATYYCQQGNEDPWTFGGGTKVEIK | 0.29
AC10 H3/L3.38 (antibody, IgG1, name in Kabat numbering, V domains shown) VH: QIQLVQSGPEVKKPGASVKVSCKASGYTFTDYYITWVRQAPGQGLEWMGWIYPGSGNTKYNEKFQGRFVFSVDTSASTAYLQISSLKAEDTAVYFCANYGNYWFAYWGQGTLVTVSS VL: DIVLTQSPDSLAVSLGERATINCKASQSVDFDGDSYMNWYQQKPGQPPKVLIYAASNRESGIPARFSGSGSGTDFTLTINSLEAEDAATYYCQQSNEDPWTFGGGTKVEIK | 1.46
AC10 H3/L3.41 (antibody, IgG1, name in Kabat numbering, V domains shown) VH: QIQLVQSGPEVKKPGASVKVSCKASGYTFTDYYITWVRQAPGQGLEWMGWIYPGSGNTKYNEKFQGRFVFSVDTSASTAYLQISSLKAEDTAVYFCANYGNYWFAYWGQGTLVTVSS VL: DIVLTQSPDSLAVSLGERATINCKASQSVDFDGDSYMNWYQQKPGQPPKVLIYAASNLETGIPARFSGSGSGTDFTLTINSLEAEDAATYYCQQSNEDPWTFGGGTKVEIK | 1.8
